T1: fraction B11SI (cation exchange fraction from potato juice; major inhibitor KPI A-k1, SEQ ID NO:1)
T1 sequence: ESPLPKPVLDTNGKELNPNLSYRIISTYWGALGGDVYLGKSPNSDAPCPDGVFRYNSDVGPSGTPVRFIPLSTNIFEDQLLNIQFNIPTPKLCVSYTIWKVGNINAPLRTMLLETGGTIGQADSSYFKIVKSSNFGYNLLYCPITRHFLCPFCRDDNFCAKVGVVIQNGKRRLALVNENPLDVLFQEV

T2: PIfXa (KPI A-k1, Kunitz protease inhibitor purified from potato tuber, Solanum tuberosum cv. Kuras; SEQ ID NO:1)
T2 sequence: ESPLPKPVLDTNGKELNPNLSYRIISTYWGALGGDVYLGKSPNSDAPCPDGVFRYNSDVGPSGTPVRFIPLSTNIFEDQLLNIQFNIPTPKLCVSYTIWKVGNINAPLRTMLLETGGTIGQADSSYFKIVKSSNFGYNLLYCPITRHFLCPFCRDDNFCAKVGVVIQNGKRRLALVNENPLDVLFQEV

T3: factor Xa (fXa)
T3 chain 1: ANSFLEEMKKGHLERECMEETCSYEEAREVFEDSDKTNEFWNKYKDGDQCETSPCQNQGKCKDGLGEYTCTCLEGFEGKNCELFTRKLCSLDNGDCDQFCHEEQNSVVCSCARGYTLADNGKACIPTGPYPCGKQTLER
T3 chain 2: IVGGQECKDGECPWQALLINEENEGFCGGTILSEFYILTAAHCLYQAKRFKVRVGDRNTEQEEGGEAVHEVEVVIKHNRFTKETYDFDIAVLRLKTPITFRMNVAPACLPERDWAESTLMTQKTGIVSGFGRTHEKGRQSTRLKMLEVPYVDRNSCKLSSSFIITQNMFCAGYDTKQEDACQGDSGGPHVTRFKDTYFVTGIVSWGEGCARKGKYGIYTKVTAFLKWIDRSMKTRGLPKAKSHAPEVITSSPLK


Assays:
[1] = system: T1, fraction B11SI (cation exchange fraction from potato juice; major inhibitor KPI A-k1, SEQ ID NO:1)
[2] = system: T2, PIfXa (KPI A-k1, Kunitz protease inhibitor purified from potato tuber, Solanum tuberosum cv. Kuras; SEQ ID NO:1)
[3] = biological target: T3, factor Xa (fXa); assay: amidolytic activity assay: chromozym t-PA hydrolysis by 50 nM fXa, competitive inhibition fit, in the presence of 1 U/mL heparin
[4] = biological target: T3, factor Xa (fXa); assay: amidolytic activity assay: chromozym t-PA hydrolysis by 50 nM fXa, competitive inhibition fit (GraphPad Prism)

Ki [3] [nM] | Ki [4] [nM] | Molecule | KM of chromozym t-PA hydrolysis by fXa with B11SI (fXa alone 0.23) [1] [µM] | KM of chromozym t-PA hydrolysis by fXa with B11SI and heparin [1] [µM] | Vmax of chromozym t-PA hydrolysis by fXa with B11SI (fXa alone 8.8 · 10^-2) [1] [mM/min] | Vmax of chromozym t-PA hydrolysis by fXa with B11SI and heparin [1] [mM/min] | reaction rate of chromozym t-PA hydrolysis by 25 nM fXa with 100 µg/mL PIfXa, no antibody (Ctrl without PIfXa 19.2) [2] [µM/min] | reaction rate of chromozym t-PA hydrolysis by fXa with PIfXa, before addition of antibody (sample PlfXa 1:1) [2] [µM/min] | reaction rate of chromozym t-PA hydrolysis by fXa with PIfXa, before addition of antibody (sample PlfXa 1:2.5) [2] [µM/min] | reaction rate of chromozym t-PA hydrolysis by fXa with PIfXa, before addition of antibody (sample PlfXa 1:5) [2] [µM/min] | reaction rate of chromozym t-PA hydrolysis by fXa with PIfXa, before addition of antibody (sample PlfXa 1:10) [2] [µM/min]
 |  | factor Xa (fXa) | 1250 | 1180 | 0.026 | 0.023 | 2 | 2.1 | 2.1 | 2.2 | 1.4
101 | 114 | fraction B11SI (cation exchange fraction from potato juice; major inhibitor KPI A-k1, SEQ ID NO:1) (other, A chromatography fraction, not a pure protein; By nESI the highest peak is 20,830 Da (KPI A-k1 N-terminal variant 3), with further peaks for variants 4, 2 and 1; also called B1151) ESPLPKPVLDTNGKELNPNLSYRIISTYWGALGGDVYLGKSPNSDAPCPDGVFRYNSDVGPSGTPVRFIPLSTNIFEDQLLNIQFNIPTPKLCVSYTIWKVGNINAPLRTMLLETGGTIGQADSSYFKIVKSSNFGYNLLYCPITRHFLCPFCRDDNFCAKVGVVIQNGKRRLALVNENPLDVLFQEV |  |  |  |  |  |  |  |  | 

Reference: patent publication US20110027337A1 (IFXA A S, published 2011)
